The text below walks through data of PMC11897886 (Nucleic Acids Research, 2024).

What all share (experiment): pull-down
Assay [1] addresses T1, CBP-Upf1-FL (S.c. Upf1 full-length) (S. cerevisiae, UniProt P30771 1-971).
T1 sequence: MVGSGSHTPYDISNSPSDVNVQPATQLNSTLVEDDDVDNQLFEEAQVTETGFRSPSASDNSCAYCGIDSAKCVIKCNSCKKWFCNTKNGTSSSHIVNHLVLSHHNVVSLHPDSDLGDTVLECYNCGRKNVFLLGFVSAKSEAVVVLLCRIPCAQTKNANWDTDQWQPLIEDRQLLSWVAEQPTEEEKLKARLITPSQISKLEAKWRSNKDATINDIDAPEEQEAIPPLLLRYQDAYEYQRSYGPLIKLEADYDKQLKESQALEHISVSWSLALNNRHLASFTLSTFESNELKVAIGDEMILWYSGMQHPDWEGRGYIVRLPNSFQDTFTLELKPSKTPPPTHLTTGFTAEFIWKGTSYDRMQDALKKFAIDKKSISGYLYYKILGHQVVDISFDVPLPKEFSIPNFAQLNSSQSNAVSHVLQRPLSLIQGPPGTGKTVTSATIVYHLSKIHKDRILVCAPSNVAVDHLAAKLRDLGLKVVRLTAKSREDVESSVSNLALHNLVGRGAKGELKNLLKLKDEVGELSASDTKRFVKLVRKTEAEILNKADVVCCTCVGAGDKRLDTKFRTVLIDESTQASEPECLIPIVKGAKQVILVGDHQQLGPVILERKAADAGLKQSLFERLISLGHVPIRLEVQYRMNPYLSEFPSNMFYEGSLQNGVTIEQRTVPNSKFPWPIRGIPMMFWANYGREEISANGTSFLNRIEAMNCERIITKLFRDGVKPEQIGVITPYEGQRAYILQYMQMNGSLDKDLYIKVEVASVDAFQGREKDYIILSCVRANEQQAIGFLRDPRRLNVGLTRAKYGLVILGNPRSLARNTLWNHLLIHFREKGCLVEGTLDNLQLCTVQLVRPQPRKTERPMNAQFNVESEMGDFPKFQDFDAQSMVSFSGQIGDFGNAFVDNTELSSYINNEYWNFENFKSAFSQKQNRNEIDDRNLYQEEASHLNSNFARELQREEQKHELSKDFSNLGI

The target of the next assay is T2, CBP-Upf1-CH-HD (S. cerevisiae, UniProt P30771 54-851).
T2 sequence: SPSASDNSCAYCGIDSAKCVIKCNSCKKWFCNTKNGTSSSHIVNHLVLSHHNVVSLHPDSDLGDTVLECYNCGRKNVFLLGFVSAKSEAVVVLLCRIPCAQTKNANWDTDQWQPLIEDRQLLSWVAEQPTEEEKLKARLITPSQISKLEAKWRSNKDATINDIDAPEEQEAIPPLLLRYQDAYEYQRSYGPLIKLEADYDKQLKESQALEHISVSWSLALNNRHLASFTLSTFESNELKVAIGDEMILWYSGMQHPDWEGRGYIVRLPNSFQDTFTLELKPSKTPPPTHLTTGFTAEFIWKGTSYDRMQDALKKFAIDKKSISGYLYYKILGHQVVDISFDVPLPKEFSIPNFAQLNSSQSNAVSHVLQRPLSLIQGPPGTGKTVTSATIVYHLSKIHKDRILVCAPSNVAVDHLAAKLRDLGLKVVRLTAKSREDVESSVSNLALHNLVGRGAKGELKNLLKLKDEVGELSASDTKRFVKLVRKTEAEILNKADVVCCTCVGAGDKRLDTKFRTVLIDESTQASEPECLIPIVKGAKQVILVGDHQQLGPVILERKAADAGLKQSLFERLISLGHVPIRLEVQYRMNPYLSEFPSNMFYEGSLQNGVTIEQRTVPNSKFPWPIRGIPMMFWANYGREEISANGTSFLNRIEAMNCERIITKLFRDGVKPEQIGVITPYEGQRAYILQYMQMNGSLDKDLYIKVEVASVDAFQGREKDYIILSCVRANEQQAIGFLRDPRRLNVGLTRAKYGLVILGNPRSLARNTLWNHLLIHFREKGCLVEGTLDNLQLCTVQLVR

The next assay concerns the target T3, CBP-Upf1-HD (S. cerevisiae, UniProt P30771 221-851).
T3 sequence: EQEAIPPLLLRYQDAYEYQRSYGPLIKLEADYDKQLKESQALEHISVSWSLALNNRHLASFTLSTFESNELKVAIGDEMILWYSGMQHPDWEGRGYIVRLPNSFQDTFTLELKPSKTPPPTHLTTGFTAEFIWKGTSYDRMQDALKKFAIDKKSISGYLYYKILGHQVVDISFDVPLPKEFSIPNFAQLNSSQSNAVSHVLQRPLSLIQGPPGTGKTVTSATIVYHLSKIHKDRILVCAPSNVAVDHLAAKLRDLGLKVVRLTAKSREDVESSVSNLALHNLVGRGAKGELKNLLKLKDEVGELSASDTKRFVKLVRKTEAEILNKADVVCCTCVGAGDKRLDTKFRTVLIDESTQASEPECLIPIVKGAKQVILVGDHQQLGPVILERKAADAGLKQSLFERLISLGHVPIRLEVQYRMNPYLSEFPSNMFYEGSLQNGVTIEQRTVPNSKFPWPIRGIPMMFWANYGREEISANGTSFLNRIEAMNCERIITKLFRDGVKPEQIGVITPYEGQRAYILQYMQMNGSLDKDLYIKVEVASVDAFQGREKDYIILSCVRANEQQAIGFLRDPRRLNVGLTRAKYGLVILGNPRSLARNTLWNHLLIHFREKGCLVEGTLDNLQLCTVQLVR

A further assay addresses T4, CBP-Upf1-HD-Ct (S. cerevisiae, UniProt P30771 221-971).
T4 sequence: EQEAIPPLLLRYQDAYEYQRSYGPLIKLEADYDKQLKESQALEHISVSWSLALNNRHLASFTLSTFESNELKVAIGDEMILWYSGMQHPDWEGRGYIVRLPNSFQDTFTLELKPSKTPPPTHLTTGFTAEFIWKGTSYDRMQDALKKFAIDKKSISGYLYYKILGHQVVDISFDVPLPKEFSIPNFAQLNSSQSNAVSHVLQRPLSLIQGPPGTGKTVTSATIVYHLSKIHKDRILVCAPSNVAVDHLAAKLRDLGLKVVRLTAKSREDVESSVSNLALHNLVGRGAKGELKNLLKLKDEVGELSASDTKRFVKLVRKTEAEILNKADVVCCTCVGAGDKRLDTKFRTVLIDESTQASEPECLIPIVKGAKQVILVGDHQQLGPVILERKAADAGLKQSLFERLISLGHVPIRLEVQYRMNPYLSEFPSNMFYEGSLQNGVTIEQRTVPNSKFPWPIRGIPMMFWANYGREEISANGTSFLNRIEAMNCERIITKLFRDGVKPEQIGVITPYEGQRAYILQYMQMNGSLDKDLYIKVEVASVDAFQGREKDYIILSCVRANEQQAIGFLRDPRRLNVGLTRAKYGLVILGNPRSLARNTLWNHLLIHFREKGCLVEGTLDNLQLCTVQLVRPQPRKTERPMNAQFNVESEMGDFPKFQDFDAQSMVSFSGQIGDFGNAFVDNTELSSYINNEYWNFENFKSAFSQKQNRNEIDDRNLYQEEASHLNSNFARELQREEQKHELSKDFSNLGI

B1: GST-Dcp2-UBM (aa 434-720) (domain or fragment)
chain: GYSSSSPGQLLDILNSKKPDSNVQSSKKPKLKILQRGTDLNSIKQNNNDETAHSNSQALLDLLKKPTSSQKIHASKPDTSFLPNDSVSGIQDAEYEDFESSSDEEVETARDERNSLNVDIGVNVMPSEKDSRRSQKEKPRNDASKTNLNASAESNSVEWGPGKSSPSTQSKQNSSVGMQNKYRQEIHIGDSDAYEVFESSSDEEDGKKLEELEQTQDNSKLISQDILKENNFQDGEVPHRDMPTESNKSINETVGLSSTTNTVKKVPKVKILKRGETFASLANDKKA
Regarding B1, the binding result (in assay [1]; with CBP-Upf1-CH-HD) was “binds” each time.

B2: GST-tagged full-length Dcp1 (aa 1-231) (natural protein)
chain: MTGAATAAENSATQLEFYRKALNFNVIGRYDPKIKQLLFHTPHASLYKWDFKKDEWNKLEYQGVLAIYLRDVSQNTNLLPVSPQEVDIFDSQNGSNNIQVNNGSDNSNRNSSGNGNSYKSNDSLTYNCGKTLSGKDIYNYGLIILNRINPDNFSMGIVPNSVVNKRKVFNAEEDTLNPLECMGVEVKDELVIIKNLKHEVYGIWIHTVSDRQNIYELIKYLLENEPKDSFA
Regarding B2, the binding result (in assay [1]; with CBP-Upf1-HD; with CBP-Upf1-HD-Ct; with CBP-Upf1-CH-HD) was “binds” in each case.

Take VGLSSTTNTVKKVPKVKILKRGETFASLANDKKA (domain or fragment) [GST-Dcp2-UBM2 (aa 687-720)]: the binding result (in assay [1]; in the assay with CBP-Upf1-CH-HD) was “binds” each time.

B3: GST-Ebs1 (aa 1-591) (domain or fragment)
chain: MEPSNTQKEDLPTAFNGIKSQLNSILKSNQLFQDYALLNGFLAFVHSKLNAAILTSIESQCGKSFAADLDSFDQSSISSILDFSWESVHYPIFKWFQMWRNYILFEKENKKQQTKFIDFRKMNSKMLKFFKTVQNFYVNVINTVYKKYDISVLLPKRIIQDLKLSDIENTTNVGDILAVKTFNSSSPLAHLIPTLFHRCLLFLGTAYRYKTLLEEISNKYSISNFKKSLDFFRLASLVLPSAGETYSQAGAIFLQTGNLGIAVFNFVKGMMTKMPSPVSIKNFGALMVDNKSSLNRSLHTTIMNTYLQESKGPRTPAKEILEFYFLGLFGSVWSPTSWRDDTKPNQLNNGIKLRHLENALYETMSARYLNNIKTIFHNLIITIGGFHLLLKRRSDVSAKTLKDLRSNELDYLNFAFKYIAHILNDIVKESWSENPEVSEILGMVRIINCWIKANPMVLQYSQSNLEFVNALAYLINDIVKKKPSPSFSITEHIPKRTYWFEEDLMVKGLSFVNFQLSDFDDYEKILEMDHSLDRLIGNPPLCDKLSASSEMLLRLQAVVNISSQLLQNNNCGVEWSDNKSRYIFNKKIGFK
As for B3, the binding result in assay [1] is “binds”.

B4: HisSUMO-tagged Ebs1 (aa 1-591) (domain or fragment)
chain: MEPSNTQKEDLPTAFNGIKSQLNSILKSNQLFQDYALLNGFLAFVHSKLNAAILTSIESQCGKSFAADLDSFDQSSISSILDFSWESVHYPIFKWFQMWRNYILFEKENKKQQTKFIDFRKMNSKMLKFFKTVQNFYVNVINTVYKKYDISVLLPKRIIQDLKLSDIENTTNVGDILAVKTFNSSSPLAHLIPTLFHRCLLFLGTAYRYKTLLEEISNKYSISNFKKSLDFFRLASLVLPSAGETYSQAGAIFLQTGNLGIAVFNFVKGMMTKMPSPVSIKNFGALMVDNKSSLNRSLHTTIMNTYLQESKGPRTPAKEILEFYFLGLFGSVWSPTSWRDDTKPNQLNNGIKLRHLENALYETMSARYLNNIKTIFHNLIITIGGFHLLLKRRSDVSAKTLKDLRSNELDYLNFAFKYIAHILNDIVKESWSENPEVSEILGMVRIINCWIKANPMVLQYSQSNLEFVNALAYLINDIVKKKPSPSFSITEHIPKRTYWFEEDLMVKGLSFVNFQLSDFDDYEKILEMDHSLDRLIGNPPLCDKLSASSEMLLRLQAVVNISSQLLQNNNCGVEWSDNKSRYIFNKKIGFK
Take B4: the binding result in assay [1] is reported as “binds”.

B5: GST-Dcp2-UBM1 (aa 434-508) (domain or fragment)
chain: GYSSSSPGQLLDILNSKKPDSNVQSSKKPKLKILQRGTDLNSIKQNNNDETAHSNSQALLDLLKKPTSSQKIHAS
In the case of B5, the binding result (in assay [1]; with CBP-Upf1-CH-HD) was “binds” in each case.
